Tested on: T1, Free DX600 peptide
T1 sequence: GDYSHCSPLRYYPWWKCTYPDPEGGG

Recombinant human angiotensin-converting enzyme 2 (ACE2) protein, carrier-free (R&D Systems)
initial velocity of ACE2 cleavage of fluorogenic substrate: there is no appreciable difference in the initial velocity of ACE2 cleavage in the presence of Ligand in comparison to the free DX600 peptide alone
